Experimental data from patent US20100273710 (published 2010).
Where two headings read alike, the source gives them in different places.

How the values were obtained:
DOP receptor = target: T1, DOP receptor (Homo sapiens, UniProt P41143); test: competition, [3H]-diprenorphine
T1 chain: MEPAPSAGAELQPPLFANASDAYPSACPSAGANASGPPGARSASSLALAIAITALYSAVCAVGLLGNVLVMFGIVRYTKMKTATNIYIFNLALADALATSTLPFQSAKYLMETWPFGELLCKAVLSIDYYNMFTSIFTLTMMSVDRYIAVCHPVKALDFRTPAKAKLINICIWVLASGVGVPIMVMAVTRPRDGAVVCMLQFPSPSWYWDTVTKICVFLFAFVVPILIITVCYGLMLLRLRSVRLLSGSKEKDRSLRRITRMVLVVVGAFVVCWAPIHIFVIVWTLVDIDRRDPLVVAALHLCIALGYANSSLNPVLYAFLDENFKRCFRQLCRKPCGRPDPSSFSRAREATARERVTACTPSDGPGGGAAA

NOP receptor [1] = target: T2, NOP receptor (Homo sapiens, UniProt P41146); test: competition, [3H]N/OFQ
NOP receptor [2] = target: T2, NOP receptor; test: competition, [3H]N/OFQ; remark: listed apart in the source
MOP receptor = MOP receptor (Homo sapiens, UniProt P35372); test: competition, [3H]-diprenorphine
Sequence of MOP receptor (P35372 whole entry): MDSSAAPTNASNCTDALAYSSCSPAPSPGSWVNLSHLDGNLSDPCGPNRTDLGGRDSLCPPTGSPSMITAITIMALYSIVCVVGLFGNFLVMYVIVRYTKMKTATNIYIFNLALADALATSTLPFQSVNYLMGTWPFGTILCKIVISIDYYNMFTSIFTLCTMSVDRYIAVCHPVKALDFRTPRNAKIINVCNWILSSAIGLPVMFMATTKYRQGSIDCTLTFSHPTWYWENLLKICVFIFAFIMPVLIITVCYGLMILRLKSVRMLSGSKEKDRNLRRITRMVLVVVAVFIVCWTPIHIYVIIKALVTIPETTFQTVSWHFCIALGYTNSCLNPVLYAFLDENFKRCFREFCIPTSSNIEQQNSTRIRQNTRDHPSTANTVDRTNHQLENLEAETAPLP

T2 sequence (P41146 whole entry): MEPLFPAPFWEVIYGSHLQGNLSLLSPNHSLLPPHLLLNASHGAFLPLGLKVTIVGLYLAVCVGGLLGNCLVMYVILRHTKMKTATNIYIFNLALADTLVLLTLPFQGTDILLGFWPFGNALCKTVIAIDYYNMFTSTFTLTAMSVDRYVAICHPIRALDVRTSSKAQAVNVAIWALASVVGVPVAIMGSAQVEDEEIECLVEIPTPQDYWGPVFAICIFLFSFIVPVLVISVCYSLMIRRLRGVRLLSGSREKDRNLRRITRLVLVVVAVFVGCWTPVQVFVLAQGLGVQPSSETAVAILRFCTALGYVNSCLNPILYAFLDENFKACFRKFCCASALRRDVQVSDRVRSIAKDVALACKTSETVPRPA

## XGGFTGXRKSARKRKNQ ([Nphe1,Aib7,Arg14,Lys15]N/OFQ-NH2; X1 = Nphe, X7 = Aib, C-terminal amide) [UFP-111]
DOP receptor
  Ki: > 10000 nM
NOP receptor [1]
  Ki: 0.178 nM
NOP receptor [2]
  Ki: 17.8 nM
MOP receptor
  Ki: > 10000 nM
